Data from article PMC4814574.

Biological target: C/EBPα WT (ivt) (human, UniProt P49715 1-358)
Experiment: EMSA; supershift by C/EBPα antibody; 10 mM HEPES-KOH pH 7.9, 50 mM KCl, 2.5 mM MgCl2, 1 mM DTT, 10% glycerol, 1 ug BSA, 0.5 ug poly(dI-dC), 25 ul, on ice 20 min; 6% gel, 0.5x TBE, 4 °C

Sequence of C/EBPα WT (ivt) (P49715 whole entry): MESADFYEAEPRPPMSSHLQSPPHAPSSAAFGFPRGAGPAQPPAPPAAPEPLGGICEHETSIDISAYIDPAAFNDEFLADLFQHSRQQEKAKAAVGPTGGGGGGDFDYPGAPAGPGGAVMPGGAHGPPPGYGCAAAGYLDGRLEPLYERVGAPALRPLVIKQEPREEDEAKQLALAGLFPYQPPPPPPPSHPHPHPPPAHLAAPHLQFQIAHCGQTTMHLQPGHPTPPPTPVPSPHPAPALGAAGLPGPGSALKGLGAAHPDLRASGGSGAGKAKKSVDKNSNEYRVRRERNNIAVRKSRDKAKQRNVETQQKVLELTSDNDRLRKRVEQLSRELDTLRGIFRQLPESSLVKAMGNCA

B1: G-CSF receptor promoter C/EBP site oligonucleotide (dsDNA)
DNA 1: CTAGGGCTTGCGCAATCTATATTCG
DNA 2: CGAATATAGATTGCGCAAGCCCTA
binding result: binds
